Key:
ASH2L, Q9UBL3-3 [1] = target: ASH2L, Q9UBL3-3
ASH2L, Q9UBL3-3 [2] = target: ASH2L, Q9UBL3-3; remark: listed apart in the source

Chain of ASH2L, Q9UBL3-3 (Q9UBL3 95-628): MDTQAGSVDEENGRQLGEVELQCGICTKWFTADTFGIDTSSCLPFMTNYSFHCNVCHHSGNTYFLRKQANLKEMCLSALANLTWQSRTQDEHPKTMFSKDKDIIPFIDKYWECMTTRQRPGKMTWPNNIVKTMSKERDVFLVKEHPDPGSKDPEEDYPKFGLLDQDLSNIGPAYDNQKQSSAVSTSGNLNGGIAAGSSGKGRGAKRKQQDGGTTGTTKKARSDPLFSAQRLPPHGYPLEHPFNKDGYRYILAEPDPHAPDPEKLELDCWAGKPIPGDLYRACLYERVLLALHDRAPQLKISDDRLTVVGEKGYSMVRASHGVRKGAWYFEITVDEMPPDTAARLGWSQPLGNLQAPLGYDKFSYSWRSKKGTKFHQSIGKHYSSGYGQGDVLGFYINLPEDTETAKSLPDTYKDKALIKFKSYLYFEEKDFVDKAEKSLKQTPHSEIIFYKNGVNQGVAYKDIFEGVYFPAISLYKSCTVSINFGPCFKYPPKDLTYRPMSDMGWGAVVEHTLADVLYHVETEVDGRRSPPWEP

Substance: Histone-lysine N-methyltransferase 2B (Homo sapiens), Q9UMN6 R2610A
- effect of a mutation on the interaction (ASH2L, Q9UBL3-3 [1]): disrupting interaction strength

Substance: Histone-lysine N-methyltransferase 2C (Homo sapiens), Q8NEZ4 R4806A
- effect of a mutation on the interaction (ASH2L, Q9UBL3-3 [2]): disrupting interaction strength

— IntAct's records for PubMed 26886794
